T1: recombinant canine OX40L ECD-TNCc-HIS protein (canine)
T1 construct: also called Trimeric OX40L probe (HIS tag); trimeric canine OX40L
T1 chain: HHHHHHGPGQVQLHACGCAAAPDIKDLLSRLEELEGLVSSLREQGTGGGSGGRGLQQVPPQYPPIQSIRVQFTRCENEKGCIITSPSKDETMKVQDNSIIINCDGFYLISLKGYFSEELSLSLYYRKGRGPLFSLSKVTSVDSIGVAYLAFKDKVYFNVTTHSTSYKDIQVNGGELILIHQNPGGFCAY

T2: canine OX40L, full length membrane form, expressed on HEK293 cells (canine)
T2 construct: also called OX40L expressing HEK; HEK OX40L cells
T2 chain: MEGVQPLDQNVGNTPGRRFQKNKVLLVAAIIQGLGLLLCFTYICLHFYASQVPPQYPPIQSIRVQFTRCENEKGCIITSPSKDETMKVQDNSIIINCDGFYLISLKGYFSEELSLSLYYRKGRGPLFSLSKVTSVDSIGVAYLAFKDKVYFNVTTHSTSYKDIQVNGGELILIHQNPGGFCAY


Key:
[1] = target: T1, recombinant canine OX40L ECD-TNCc-HIS …; assay: SPR Koff (kd2)
Procedure: (§1) Affinity (Kd) of OX40L antibodies is measured by SPR, using a recombinant canine OX40L ECD-TNCc-HIS protein (Seq ID 811) as the capturing agent (FIG. 5B).
(§2) Functional affinity is determined using a Biakore 8K (Cytiva). in brief, purified OX40L ECD-TNCc-HIS protein is covalently bound at low density to the surface of a CM5 sensor chip (Cytiva) by amine coupling, using the manufacturer's recommended protocol. Candidate antibodies are subsequently passed across the chip surface at a range of concentrations and affinity determined using the dedicated software (Biacore Insight Evaluation Software). Curves were fitted using a bivalent analyte binding model.

[2] = target: T1, recombinant canine OX40L ECD-TNCc-HIS …; assay: SPR Koff (kd1)
Procedure: as §1, §2

[3] = target: T2, canine OX40L, full length membrane …; assay: flow cytometry, OX40L HEK minus WT HEK
Procedure: (§3) CHO supernatants diluted in FACS buffer (PBS containing 3% FBS) at 1, 5 or 10 μg/ml were used to screen for their binding capacity to canine OX40L using a cell-based assay. In brief, HEK293 or MEF cells (or any other commonly used cell lines) expressing canine OX40L at the cell surface are incubated with 100 μll of FACS buffer containing the candidate antibody for 30′ on ice. Cells are washed with 150 μl FACS buffer followed by centrifugation at 300 g for 3 min. The cell pellet is resuspended in FACS buffer containing a 1:1000 dilution of a fluorescently labelled secondary antibody recognising the canine Fc region of the test antibody for 30 min in the dark, followed by washing with 150 μl FACS buffer. Cells are resuspended in FACS buffer and flow cytometry performed using either a […] cytometer, followed by data analysis using FlowJo (FIG. 6 and Table 4).

[4] = target: T2, canine OX40L, full length membrane …; assay: cell-based or functional assay
[5] = target: T1, recombinant canine OX40L ECD-TNCc-HIS …; assay: SPR KD1, bivalent analyte model
Procedure: as §1, §2

[6] = target: T2, canine OX40L, full length membrane …; assay: flow cytometry
Procedure: as §3

Binder	koff [1] [s⁻¹]	koff [2] [s⁻¹]	GEO mean difference [3]	% Signal Inhibition Average [4] [%]	% Signal Inhibition Rep1 [4] [%]	% Signal Inhibition Rep2 [4] [%]	% Signal Inhibition Rep3 [4] [%]	Kd [5] [nM]	GEO mean OX40L expressing HEK [6]
PMX047 (antibody, V domains shown, also called PMX47) VH: EVQLVESGGDLVKPGGSLRLSCVASGFIFSSYSMSWVRQAPEKGLQLVAGINSAGSSTYYTDAVKGRFTISRDNAKNTVYLQMNSLRAEDTAIYYCAKRWVFDFWGQGTLVTVSS VL: HIVMTQTPLSLSVSPGEPASISCKASQSLLLSYGNTYLYWFRQKPGQSPQRLIYKVSNRDPGVPDRFSGSGSGTDFTLRISRVEADDAGVYYCGQGIQDPFTFGQGTKLEIK	1.5e-05	0.000451	1.92e+06	61.6	49.3	73.1	62.3	12.5	1.95e+06
PMX053 (antibody, V domains shown, also called PMX53) VH: EVQLVESGGDLVKPAGSLRLSCVASGFTFSSYSMSWVRQAPEKGLQLVAGINSAGSSTYYTDAVKGRFTISRDNAKNTVYLQMNSLRAEDTAIYYCAKRWVFDYWGQGTLVTVSS VL: DIVMTQTPLSLSVSPGEPASISCKASQSLPHSLGNTYLYWFRQKPGQSPQRLIYKVSNRDPGVPDRFSGSGSGTDFTLRISRVEADDAGIYYCGQGIQDPFTFGQGTKLEIK	0.565	0.000587	3e+06	39.7	24.5	45.8	48.9	3.4	3.03e+06
PMX041 (antibody, also called PMX41) heavy: EVHLVESGGDLVKPEGSLRLSCVVSGFTFTTNDMSWVRQAPGKGLQWVAYITSDGRITTYTDAVKGRFTISRDNAKNTLYLQMNSLRTEDTAVYYCAKHSSNWSRGRFGLDYWGHGTSLFVSSASTTAPSVFPLAPSCGSTSGSTVALACLVSGYFPEPVTVSWNSGSLTSGVHTFPSVLQSSGLYSLSSMVTVPSSRWPSETFTCNVAHPASKTKVDKPVPKRENGRVPRPPDCPKCPAPESLGGPSVFIFPPKPKDTLLIARTPEVTCVVVDLGREDPEVQISWFVDGKQMQTAKTQPREEQFNGTYRVVSVLPIGHQDWLKGKQFTCKVNHIGLPSPIERTISKARGQAHQPSVYVLPPSREELSKNTVSLTCLIKDFFPPDIDVEWQSNGQQEPESKYRTTPPQLDEDGSYFLYSKLSVDKSRWQRGDTFICAVMHEALHNHYTQKSLSHSPGK VL: SYVLTQLPSKNVTLKQPAHITCGGDNIGSKSVHWYQQKLGQAPVLIIYYDSSRPTGIPERFSGANSGNTATLTISGALAEDEADYYCQVWDNSASVFGGGTHLTVL	0.000409	0.0134	1.53e+06	80.1	86.4	78.2	75.6	1590	1.56e+06
PMX050 (antibody, V domains shown, also called PMX50) VH: EVQLVESGGDLVKPEGSLRLSCVVSGFTFTTYDMSWVRQAPGKGLQWVAYITNDGRITTYTDAVKGRFTISRDNAKNTLYLQMNSLRTVDTGVYYCARHSSSWSRGRFGLDYWGHGTSVFVSS VL: SYVLTQLPSKNVTLKQPAHITCGGDNIGRKGVHWYQQKLGQAPVLIIYYDSSRPTGIPERFSGANSGNTATLTISGALAEDEADYYCQVWDNSASVFGGGTHLTVL	0.161	0.000525	3.06e+06	76.6	68.7	83.3	77.6	1.31	3.08e+06

Further binders by falling Kd [5], results first:

koff [1] [s⁻¹]	koff [2] [s⁻¹]	GEO mean difference [3]	% Signal Inhibition Average [4] [%]	% Signal Inhibition Rep1 [4] [%]	% Signal Inhibition Rep2 [4] [%]	% Signal Inhibition Rep3 [4] [%]	Kd [5] [nM]	GEO mean OX40L expressing HEK [6]	Binder
0.00139	0.0128	1.49e+06	80.6	81.7	86.6	73.6	46.4	1.52e+06	PMX039 (antibody, also called PMX39) heavy: EVQLVESGGDLVKPEGSLRLSCVVSGFTFITNDMSWVRQAPGKGLQWVAYITNDGRYTSYTDAVKGRFTISRDNAKNTLYLQMNSLRTEDTAVYYCAKHSSNYYRGRFGMDYWGHGTSLFVSSASTTAPSVFPLAPSCGSTSGSTVALACLVSGYFPEPVTVSWNSGSLTSGVHTFPSVLQSSGLYSLSSMVTVPSSRWPSETFTCNVAHPASKTKVDKPVPKRENGRVPRPPDCPKCPAPESLGGPSVFIFPPKPKDTLLIARTPEVTCVVVDLGREDPEVQISWFVDGKQMQTAKTQPREEQFNGTYRVVSVLPIGHQDWLKGKQFTCKVNHIGLPSPIERTISKARGQAHQPSVYVLPPSREELSKNTVSLTCLIKDFFPPDIDVEWQSNGQQEPESKYRTTPPQLDEDGSYFLYSKLSVDKSRWQRGDTFICAVMHEALHNHYTQKSLSHSPGK VL: SYVLTQLPSKNVTLKQPAHITCGGDNIGSKSVHWYQQKLGQAPVLIIYYDSTRPTGIPERFSGANSGNTATLTISGALAEDEADYYCQVWDSSASVFGGGTHLTVL
1.23	0.00174	580000	84.2	85.4	94.8	72.5	17.6	584000	PMX105 (antibody, V domains shown) VH: EVQLVESGGDLVKPGGSLRLSCVASGFTFNTYHMNWVRQAPGKGLHWVAFINSGGSGTSYEDTVQGRFTISRDYAKNTLYLQMNSLRAEDTAVYYCACGSIWTHFDYWGQGTLVTVSS VL: SYVLTQLPSVSVTLRQTAHITCGGDIIGSKSVYWYQQKLGQAPVMIIYRDNNRPTGIPERFSGASSGNTATLTISGSLAEDEADYYCQVWDSRTQALFGGGTHLTVL
0.0725	0.00276	734000	22.2	15.7	29.2	21.7	12	765000	PMX052 (antibody, V domains shown, also called PMX52) VH: EVQLVESGGDLVKPAGSLRLSCVASGFTFSSYSMSWVRQAPEKGLQLVAGISGGGSRTYYSDAVKGRFTISRDNAKNTVYLQMNSLRAEDTAIYYCAKDGGSWAGYNFDYWGQGTLVTVSS VL: DIVMTQTPPSLSVSPRETASISCKASQSLLHSDGSTYLDWYLQKPGQSPQLLIYLGSNRFTGVSDRFSGSGSGTEFTLRISRVEANDTGVYYCGQGTQLPYTFGQGTELEIK
4.81	0.00119	3.92e+06	84.1	82.2	75.3	94.7	7.92	3.94e+06	PMX051 (antibody, V domains shown, also called PMX51) VH: EVQLVESGGDLVKPGGSLRLSCVASGFSFNTYHMNWVRQAPGKGLHWVAFINSDGGGTSYADTVKGRFTISRDYAKNTLYLQMNSLRAEDTAVYYCVSGSIWTHFDYWGQGTLVTVSS VL: SYVLTQLPSVSMTLRQTAHITCGGDIIGSKSVYWYQQKLGQAPVLIIYRDTNRPTGIPERFSGASSGNTATLTISGALAEDEADYYCQVWDSSTQAVFGGGTHLTVL
0.0848	0.0345	3.24e+06	32	21	32.8	42	5.76	3.27e+06	PMX054 (antibody, V domains shown, also called PMX54) VH: EVHLVESGGDLVKPEGSLRLSCVVSGFTFSSYDMSWVRQAPGKGLQWVAYISSDGRSTGYTDAVKGRFTISRDNAKKTLYLQMNSLRSEDTAVYYCAKETPRWGFDYWGQGTLVTVSS VL: SYVLTQLPSVSVTLRQTARITCGGASIGSKNVYWHQQKLGQAPLLIIYDDSSRPSGIPERFSGANSGNTATLTISGALAEDEADYYCQVWDSSTSVFGGGTHLTVL

Reference: US20250340659A1 (PETMEDIX, published 2025)
